The target in assay [1] is T1, human glucagon receptor (human, UniProt P47871 26-477).
T1 construct: whole, on cells; the potency assay used whole cells (clone pLJ6'-4-25); also called GlucR; hGCGR
The assay can be described thus: displacement of 125I-glucagon, membranes with human glucagon receptor, SPA. The procedure:
The receptor binding of each compound to the human glucagon receptor was measured in a displacement binding assay. […] Each derivative was added in a series of concentrations to isolated membranes containing the human glucagon receptor and displacement of the labelled ligand is monitored. The receptor binding was reported as the concentration at which half of the labelled ligand is displaced from the receptor, the IC₅₀ value.

Assay [2] deals with T2, human GLP-1 receptor (human, UniProt P43220 24-463). In words: cell-based or functional assay.
The target in assay [3] is T1, human glucagon receptor. The assay can be described thus: cell-based or functional assay.
Assay [4] concerns the target T2, human GLP-1 receptor. In words: displacement of 125I-GLP-1(7-36)NH2, membranes with human GLP-1R, SPA. As for the experimental part:
The receptor binding of each compound to the human GLP-1 receptor was measured in a displacement binding assay. […] Each derivative was added in a series of concentrations to isolated membranes containing the human GLP-1 receptor and displacement of the labelled ligand was monitored. The receptor binding was reported as the concentration at which half of the labelled ligand was displaced from the receptor, the IC₅₀ value.

Numbered stars: 1 amine (or outer) side, 2 acyl side, 3 side chain; on linkers, the order of the positions; unused ones are H or OH. Square brackets hold non-standard residues; d marks the D form. Side chains are listed from the residue outwards. Ends that are not written are not given here. * marks the point of attachment. C18 diacid = O=C(O)CCCCCCCCCCCCCCCCC(=O)*; γGlu = O=C(O)[C@H](CCC(=O)[*:2])N[*:1]; AEEA = NCCOCCOCC(=O)O; Aib = CC(C)(N)C(=O)O

T1 sequence (P47871 26-477): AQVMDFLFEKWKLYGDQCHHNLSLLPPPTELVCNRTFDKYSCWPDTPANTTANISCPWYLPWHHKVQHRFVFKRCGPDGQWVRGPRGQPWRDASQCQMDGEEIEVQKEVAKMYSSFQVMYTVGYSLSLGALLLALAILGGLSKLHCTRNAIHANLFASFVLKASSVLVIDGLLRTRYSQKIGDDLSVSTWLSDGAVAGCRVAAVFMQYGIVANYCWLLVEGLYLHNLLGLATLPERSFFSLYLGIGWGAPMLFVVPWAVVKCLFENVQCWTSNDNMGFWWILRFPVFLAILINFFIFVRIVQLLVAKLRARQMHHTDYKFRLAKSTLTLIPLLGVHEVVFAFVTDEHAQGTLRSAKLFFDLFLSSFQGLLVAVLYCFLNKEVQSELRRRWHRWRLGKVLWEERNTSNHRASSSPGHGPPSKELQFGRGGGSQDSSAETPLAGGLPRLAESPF

B1: N^ε28-[(4S)-4-carboxy-4-[[(4S)-4-carboxy-4-[[(4S)-4-carboxy-4-(17-carboxyheptadecanoylamino)butanoyl]amino]butanoyl]amino]butanoyl]-[Aib2,Leu10,Arg12,Ala16,Arg2 … (peptide)
peptide: H[Aib]QGTFTSDLSRYLDARRARDFVQWLLK([γGlu-γGlu-γGlu-C18 diacid])T-NH2
modifications: N-terminus assumed
SMILES: CC(C)C[C@H](NC(=O)[C@H](Cc1ccc(O)cc1)NC(=O)[C@H](CCCNC(=N)N)NC(=O)[C@H](CO)NC(=O)[C@H](CC(C)C)NC(=O)[C@H](CC(=O)O)NC(=O)[C@H](CO)NC(=O)[C@@H](NC(=O)[C@H](Cc1ccccc1)NC(=O)[C@@H](NC(=O)CNC(=O)[C@H](CCC(N)=O)NC(=O)C(C)(C)NC(=O)[C@@H](N)Cc1c[nH]cn1)[C@@H](C)O)[C@@H](C)O)C(=O)N[C@@H](CC(=O)O)C(=O)N[C@@H](C)C(=O)N[C@@H](CCCNC(=N)N)C(=O)N[C@@H](CCCNC(=N)N)C(=O)N[C@@H](C)C(=O)N[C@@H](CCCNC(=N)N)C(=O)N[C@@H](CC(=O)O)C(=O)N[C@@H](Cc1ccccc1)C(=O)N[C@H](C(=O)N[C@@H](CCC(N)=O)C(=O)N[C@@H](Cc1c[nH]c2ccccc12)C(=O)N[C@@H](CC(C)C)C(=O)N[C@@H](CC(C)C)C(=O)N[C@@H](CCCCNC(=O)CC[C@H](NC(=O)CC[C@H](NC(=O)CC[C@H](NC(=O)CCCCCCCCCCCCCCCCC(=O)O)C(=O)O)C(=O)O)C(=O)O)C(=O)N[C@H](C(N)=O)[C@@H](C)O)C(C)C
For B1, the IC50 is 3.9 nM with human glucagon receptor [1] and 0.2 nM in the assay with human GLP-1 receptor [4]. Further, the “EC50 GLP-1R, CRE luciferase reporter gene assay in BHK cells” value (“EC50 GLP-1R” below) with human GLP-1 receptor [2] is 8 pM. The “EC50 GlucR, CRE luciferase reporter gene assay in BHK cells” value (“EC50 GlucR” for short) with human glucagon receptor [3] came out at 10 pM.

B2: N^ε29-[(4S)-4-carboxy-4-[[(4S)-4-carboxy-4-[[2-[2-[2-[[2-[2-[2-[[(4S)-4-carboxy-4-(17-carboxyheptadecanoylamino)butanoyl]amino]ethoxy]ethoxy]acetyl]amino]ethoxy … (peptide)
peptide: H[Aib]QGTFTSDLSKYLDARRARDFVQWLLNK([γGlu-γGlu-AEEA-AEEA-γGlu-C18 diacid])-NH2
modifications: N-terminus assumed
SMILES: CC(C)C[C@H](NC(=O)[C@H](Cc1ccc(O)cc1)NC(=O)[C@H](CCCCN)NC(=O)[C@H](CO)NC(=O)[C@H](CC(C)C)NC(=O)[C@H](CC(=O)O)NC(=O)[C@H](CO)NC(=O)[C@@H](NC(=O)[C@H](Cc1ccccc1)NC(=O)[C@@H](NC(=O)CNC(=O)[C@H](CCC(N)=O)NC(=O)C(C)(C)NC(=O)[C@@H](N)Cc1c[nH]cn1)[C@@H](C)O)[C@@H](C)O)C(=O)N[C@@H](CC(=O)O)C(=O)N[C@@H](C)C(=O)N[C@@H](CCCNC(=N)N)C(=O)N[C@@H](CCCNC(=N)N)C(=O)N[C@@H](C)C(=O)N[C@@H](CCCNC(=N)N)C(=O)N[C@@H](CC(=O)O)C(=O)N[C@@H](Cc1ccccc1)C(=O)N[C@H](C(=O)N[C@@H](CCC(N)=O)C(=O)N[C@@H](Cc1c[nH]c2ccccc12)C(=O)N[C@@H](CC(C)C)C(=O)N[C@@H](CC(C)C)C(=O)N[C@@H](CC(N)=O)C(=O)N[C@@H](CCCCNC(=O)CC[C@H](NC(=O)CC[C@H](NC(=O)COCCOCCNC(=O)COCCOCCNC(=O)CC[C@H](NC(=O)CCCCCCCCCCCCCCCCC(=O)O)C(=O)O)C(=O)O)C(=O)O)C(N)=O)C(C)C
For the molecule B2, the figures for the IC50 in the assay with human glucagon receptor [1] and with human GLP-1 receptor [4] were 17 nM and 0.5 nM, respectively. The “EC50 GLP-1R” value with human GLP-1 receptor [2] is 6 pM. Also, in the assay with human glucagon receptor [3], the “EC50 GlucR” value was 44 pM.

B3: N^ε29-[(4S)-4-carboxy-4-[[(4S)-4-carboxy-4-[[2-[2-[2-[[2-[2-[2-[[(4S)-4-carboxy-4-(17-carboxyheptadecanoylamino)butanoyl]amino]ethoxy]ethoxy]acetyl]amino]ethoxy … (peptide)
peptide: H[Aib]QGTFTSDLSKYLDSRAAREFVQWLLNK([γGlu-γGlu-AEEA-AEEA-γGlu-C18 diacid])-NH2
modifications: N-terminus assumed
SMILES: CC(C)C[C@H](NC(=O)[C@H](CC(C)C)NC(=O)[C@H](Cc1c[nH]c2ccccc12)NC(=O)[C@H](CCC(N)=O)NC(=O)[C@@H](NC(=O)[C@H](Cc1ccccc1)NC(=O)[C@H](CCC(=O)O)NC(=O)[C@H](CCCNC(=N)N)NC(=O)[C@H](C)NC(=O)[C@H](C)NC(=O)[C@H](CCCNC(=N)N)NC(=O)[C@H](CO)NC(=O)[C@H](CC(=O)O)NC(=O)[C@H](CC(C)C)NC(=O)[C@H](Cc1ccc(O)cc1)NC(=O)[C@H](CCCCN)NC(=O)[C@H](CO)NC(=O)[C@H](CC(C)C)NC(=O)[C@H](CC(=O)O)NC(=O)[C@H](CO)NC(=O)[C@@H](NC(=O)[C@H](Cc1ccccc1)NC(=O)[C@@H](NC(=O)CNC(=O)[C@H](CCC(N)=O)NC(=O)C(C)(C)NC(=O)[C@@H](N)Cc1c[nH]cn1)[C@@H](C)O)[C@@H](C)O)C(C)C)C(=O)N[C@@H](CC(N)=O)C(=O)N[C@@H](CCCCNC(=O)CC[C@H](NC(=O)CC[C@H](NC(=O)COCCOCCNC(=O)COCCOCCNC(=O)CC[C@H](NC(=O)CCCCCCCCCCCCCCCCC(=O)O)C(=O)O)C(=O)O)C(=O)O)C(N)=O
Consider B3, for which the results for the IC50 with human glucagon receptor [1] and with human GLP-1 receptor [4] were 381 nM and 0.2 nM, respectively. For the same molecule, in the assay with human GLP-1 receptor [2], the “EC50 GLP-1R” value came out at 3.2 pM. The “EC50 GlucR” value with human glucagon receptor [3] is 699 pM.

B4: N^ε29-[(4S)-4-carboxy-4-[[2-[2-[2-[[2-[2-[2-[[(4S)-4-carboxy-4-[[(4S)-4-carboxy-4-(17-carboxyheptadecanoylamino)butanoyl]amino]butanoyl]amino]ethoxy]ethoxy]acet … (peptide)
peptide: H[Aib]QGTFTSDLSKYLESRRAREFVQWLLNK([γGlu-AEEA-AEEA-γGlu-γGlu-C18 diacid])-NH2
modifications: N-terminus assumed
SMILES: CC(C)C[C@H](NC(=O)[C@H](CC(C)C)NC(=O)[C@H](Cc1c[nH]c2ccccc12)NC(=O)[C@H](CCC(N)=O)NC(=O)[C@@H](NC(=O)[C@H](Cc1ccccc1)NC(=O)[C@H](CCC(=O)O)NC(=O)[C@H](CCCNC(=N)N)NC(=O)[C@H](C)NC(=O)[C@H](CCCNC(=N)N)NC(=O)[C@H](CCCNC(=N)N)NC(=O)[C@H](CO)NC(=O)[C@H](CCC(=O)O)NC(=O)[C@H](CC(C)C)NC(=O)[C@H](Cc1ccc(O)cc1)NC(=O)[C@H](CCCCN)NC(=O)[C@H](CO)NC(=O)[C@H](CC(C)C)NC(=O)[C@H](CC(=O)O)NC(=O)[C@H](CO)NC(=O)[C@@H](NC(=O)[C@H](Cc1ccccc1)NC(=O)[C@@H](NC(=O)CNC(=O)[C@H](CCC(N)=O)NC(=O)C(C)(C)NC(=O)[C@@H](N)Cc1c[nH]cn1)[C@@H](C)O)[C@@H](C)O)C(C)C)C(=O)N[C@@H](CC(N)=O)C(=O)N[C@@H](CCCCNC(=O)CC[C@H](NC(=O)COCCOCCNC(=O)COCCOCCNC(=O)CC[C@H](NC(=O)CC[C@H](NC(=O)CCCCCCCCCCCCCCCCC(=O)O)C(=O)O)C(=O)O)C(=O)O)C(N)=O
In the case of B4, the figures for the IC50 with human glucagon receptor [1] and with human GLP-1 receptor [4] were 51 nM and 0.3 nM, respectively. For the same molecule, the “EC50 GLP-1R” value with human GLP-1 receptor [2] worked out at 2.7 pM. In addition, the “EC50 GlucR” value in the assay with human glucagon receptor [3] worked out at 240 pM.

B5: N^ε29-[(4S)-4-carboxy-4-[[(4S)-4-carboxy-4-[[2-[2-[2-[[2-[2-[2-[[(4S)-4-carboxy-4-(17-carboxyheptadecanoylamino)butanoyl]amino]ethoxy]ethoxy]acetyl]amino]ethoxy … (peptide)
peptide: H[Aib]QGTFTSDLSKYLDARRARDFVQWLLSK([γGlu-γGlu-AEEA-AEEA-γGlu-C18 diacid])-NH2
modifications: N-terminus assumed
SMILES: CC(C)C[C@H](NC(=O)[C@H](Cc1ccc(O)cc1)NC(=O)[C@H](CCCCN)NC(=O)[C@H](CO)NC(=O)[C@H](CC(C)C)NC(=O)[C@H](CC(=O)O)NC(=O)[C@H](CO)NC(=O)[C@@H](NC(=O)[C@H](Cc1ccccc1)NC(=O)[C@@H](NC(=O)CNC(=O)[C@H](CCC(N)=O)NC(=O)C(C)(C)NC(=O)[C@@H](N)Cc1c[nH]cn1)[C@@H](C)O)[C@@H](C)O)C(=O)N[C@@H](CC(=O)O)C(=O)N[C@@H](C)C(=O)N[C@@H](CCCNC(=N)N)C(=O)N[C@@H](CCCNC(=N)N)C(=O)N[C@@H](C)C(=O)N[C@@H](CCCNC(=N)N)C(=O)N[C@@H](CC(=O)O)C(=O)N[C@@H](Cc1ccccc1)C(=O)N[C@H](C(=O)N[C@@H](CCC(N)=O)C(=O)N[C@@H](Cc1c[nH]c2ccccc12)C(=O)N[C@@H](CC(C)C)C(=O)N[C@@H](CC(C)C)C(=O)N[C@@H](CO)C(=O)N[C@@H](CCCCNC(=O)CC[C@H](NC(=O)CC[C@H](NC(=O)COCCOCCNC(=O)COCCOCCNC(=O)CC[C@H](NC(=O)CCCCCCCCCCCCCCCCC(=O)O)C(=O)O)C(=O)O)C(=O)O)C(N)=O)C(C)C
For the molecule B5, the results for the IC50 in the assay with human glucagon receptor [1] and with human GLP-1 receptor [4] were 10.4 nM and 0.6 nM, respectively. For the same molecule, the “EC50 GLP-1R” value in the assay with human GLP-1 receptor [2] came out at 5 pM. The “EC50 GlucR” value in the assay with human glucagon receptor [3] was 47 pM.

B6: N^ε29-[(4S)-4-carboxy-4-[[2-[2-[2-[[2-[2-[2-[[(4S)-4-carboxy-4-[[(4S)-4-carboxy-4-(17-carboxyheptadecanoylamino)butanoyl]amino]butanoyl]amino]ethoxy]ethoxy]acet … (peptide)
peptide: H[Aib]QGTFTSDLSKYLDKRRAREFVAWLLNT-NH2
modifications: not fully specified (residue 16)
B6: the IC50 with human glucagon receptor [1] is 8.5 nM; with human GLP-1 receptor [4], 0.9 nM. Besides, the “EC50 GLP-1R” value with human GLP-1 receptor [2] turned out to be 4.7 pM. Further, the “EC50 GlucR” value with human glucagon receptor [3] is 39.9 pM.

B7: N^ε29-[(4S)-4-carboxy-4-[[(4S)-4-carboxy-4-[[2-[2-[2-[[2-[2-[2-[[(4S)-4-carboxy-4-(17-carboxyheptadecanoylamino)butanoyl]amino]ethoxy]ethoxy]acetyl]amino]ethoxy … (peptide)
peptide: H[Aib]QGTFTSDLSKYLDSKAAQEFVQWLLNK([γGlu-γGlu-AEEA-AEEA-γGlu-C18 diacid])-NH2
modifications: N-terminus assumed
SMILES: CC(C)C[C@H](NC(=O)[C@H](CC(C)C)NC(=O)[C@H](Cc1c[nH]c2ccccc12)NC(=O)[C@H](CCC(N)=O)NC(=O)[C@@H](NC(=O)[C@H](Cc1ccccc1)NC(=O)[C@H](CCC(=O)O)NC(=O)[C@H](CCC(N)=O)NC(=O)[C@H](C)NC(=O)[C@H](C)NC(=O)[C@H](CCCCN)NC(=O)[C@H](CO)NC(=O)[C@H](CC(=O)O)NC(=O)[C@H](CC(C)C)NC(=O)[C@H](Cc1ccc(O)cc1)NC(=O)[C@H](CCCCN)NC(=O)[C@H](CO)NC(=O)[C@H](CC(C)C)NC(=O)[C@H](CC(=O)O)NC(=O)[C@H](CO)NC(=O)[C@@H](NC(=O)[C@H](Cc1ccccc1)NC(=O)[C@@H](NC(=O)CNC(=O)[C@H](CCC(N)=O)NC(=O)C(C)(C)NC(=O)[C@@H](N)Cc1c[nH]cn1)[C@@H](C)O)[C@@H](C)O)C(C)C)C(=O)N[C@@H](CC(N)=O)C(=O)N[C@@H](CCCCNC(=O)CC[C@H](NC(=O)CC[C@H](NC(=O)COCCOCCNC(=O)COCCOCCNC(=O)CC[C@H](NC(=O)CCCCCCCCCCCCCCCCC(=O)O)C(=O)O)C(=O)O)C(=O)O)C(N)=O
Take B7: the IC50 with human glucagon receptor [1] stood at 6.7 nM; with human GLP-1 receptor [4], 1.1 nM. Also, the “EC50 GLP-1R” value with human GLP-1 receptor [2] is 29.6 pM. Also, the “EC50 GlucR” value with human glucagon receptor [3] worked out at 1130 pM.
